Measured values: patent CN113173994A (SHENZHEN INNOVA NANOBODI CO LTD, dated 2021)

T1: 血清标本中的AFP抗原 (UniProt P02771 19-609)
T1 construct: also called 质控血清AFP; 标准血清中的AFP
T1 sequence (looked up): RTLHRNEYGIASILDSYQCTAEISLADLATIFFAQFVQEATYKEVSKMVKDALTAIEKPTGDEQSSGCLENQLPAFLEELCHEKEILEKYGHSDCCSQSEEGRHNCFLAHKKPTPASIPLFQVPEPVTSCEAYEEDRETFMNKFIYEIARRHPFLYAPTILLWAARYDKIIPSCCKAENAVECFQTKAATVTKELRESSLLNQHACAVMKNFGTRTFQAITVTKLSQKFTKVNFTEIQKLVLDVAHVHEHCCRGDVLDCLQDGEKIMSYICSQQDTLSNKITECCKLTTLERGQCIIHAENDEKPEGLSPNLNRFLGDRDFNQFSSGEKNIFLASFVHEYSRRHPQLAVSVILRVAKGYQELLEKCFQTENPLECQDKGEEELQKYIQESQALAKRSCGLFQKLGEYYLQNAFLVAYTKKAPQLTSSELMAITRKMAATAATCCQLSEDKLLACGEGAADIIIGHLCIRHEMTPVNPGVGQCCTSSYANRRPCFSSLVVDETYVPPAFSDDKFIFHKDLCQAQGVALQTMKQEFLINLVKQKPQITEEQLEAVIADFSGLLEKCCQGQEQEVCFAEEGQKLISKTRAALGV

T2: 重组AFP抗原(爱必信生物，货号Abt-P-208，GenbankID:174) (UniProt P02771 19-609, limits assumed)
T2 construct: Bought recombinant antigen; also called 甲胎蛋白; α-fetoprotein
T2 sequence (looked up): T1 sequence (looked up)

B1: 带有化学发光区序列的纳米抗体1C5-HAP (other)
chain: QVQLQESGGGLVQAGGSLRLSCKASERTFSSYSMAWYRQAPGKKREFVASISWDDERTYYTDSVKGRFTISRPNAKNTVYLQMNSLKPEDTAVYYCAVGGLSDGLGPSYDYWGQGTQVTVSSGGGGSGGGGSGGGGSIIPVEEENPDFWNREAAEALGAAKKLQPAQTAAKNLIIFLGDGMGVSTVTAARILKGQKKDKLGPEIPLAMDRFPYVALSKTYNVDKHVPDSGATATAYLCGVKGNFQTIGLSAAARFNQCNTTRGNEVISVMNRAKKAGKSVGVVTTTRVQHASPAGTYAHTVNRNWYSDADVPASARQEGCQDIATQLISNMDIDVILGGGRKYMFRMGTPDPEYPDDYSQGGTRLDGKNLVQEWLAKRQGARYVWNRTELMQASLDPSVTHLMGLFEPGDMKYEIHRDSTLDPSLMEMTEAALRLLSRNPRGFFLFVEGGRIDHGHHESRAYRALTETIMFDDAIERAGQLTSEEDTLSLVTADHSHVFSFGGYPLRGSSIFGLAPGKARDRKAYTVLLYGNGPGYVLKDGARPDVTESESGSPEYRQQSAVPLDEETHAGEDVAVFARGPQAHLVHGVQEQTFIAHVMAFAACLEPYTACDLAPPAGTTD
notes: Expressed in 293 cells
B2: 纳米抗体1C5 (VHH)
VHH: QVQLQESGGGLVQAGGSLRLSCKASERTFSSYSMAWYRQAPGKKREFVASISWDDERTYYTDSVKGRFTISRPNAKNTVYLQMNSLKPEDTAVYYCAVGGLSDGLGPSYDYWGQGTQVTVSS

Key:
血清标本中的AFP抗原 = target: T1, 血清标本中的AFP抗原; assay: double-antibody sandwich chemiluminescence assay, detection antibody
[1] = target: T2, 重组AFP抗原(爱必信生物，货号Abt-P-208，GenbankID:174); assay: ELISA additivity test on coated AFP

Binder	binding result (血清标本中的AFP抗原)	binding result [1]
B1	binds	–
B2	–	binds
